Results taken from patent US20140294821A1.

Experiments:
[1] = target: human von Willebrand factor, FVIII-free, plasma derived (human) (UniProt P04275); experiment: SPR (BIAcore), binding to vWF
[2] = target: human von Willebrand factor, FVIII-free, plasma derived (human) (UniProt P04275); experiment: SPR (BIAcore), hvWf as ligand, FVIII protein as analyte, N=5
[3] = target: human von Willebrand factor, FVIII-free, plasma derived (human) (UniProt P04275); experiment: SPR (BIAcore), single-cycle kinetics 0.13-5.0 nM, plasma derived human vWF immobilized by amine coupling, 1:1 model, N=6

Row | fold difference in affinity (KD) against rBDD FVIII [1] | fold difference in on-rate against rBDD FVIII [1] | fold of KD against BDD FVIII alone [1] | Kd [2] | koff [2] | kon [2] | Kd [3] | koff [3] | kon [3] | Substance
1 | 2 fold | 2 fold | 2 fold | 1.64 nM | 0.00125 s⁻¹ | 792000 M⁻¹ s⁻¹ | 0.34 nM | 0.00089 s⁻¹ | 2.6e+06 M⁻¹ s⁻¹ | rFVIIIFc (recombinant B-domain deleted human FVIII-Fc monomer hybrid), drug substance (from UniProt P00451 20-1667; P0DOX5 223-449) (Fc fusion)
2 | – | – | – | 0.846 nM | 0.00114 s⁻¹ | 1.37e+06 M⁻¹ s⁻¹ | – | – | – | rBDD FVIII (recombinant B-domain deleted FVIII lacking Fc moieties) (from UniProt P00451 20-1667; P00451 1668-2351)
